Reference: the supplement of paper PMC9876800

Tested on: peptide library, one residue held at a place counted from the S/T acceptor
Experiment: relative phosphorylation of the sub-library (ratio to the mean residue at this position); human; higher = residue favoured
Summary of the method: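 Purified recombinant kinases, either human or orthologue constructs, were incubated in 384-well plates with biotinylated degenerate peptide sub-libraries. Each sub-library fixed one residue at one position around a central Ser/Thr. Peptides at 50 μM and 50 μM ATP spiked with γ-32P-ATP were used for 90 min under kinase-specific conditions, and spots on streptavidin membranes were phosphorimaged and quantified by densitometry. Relative sub-library phosphorylation is expressed as a ratio to the mean residue at that position.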

Sequence of STK10, construct: aa18-317 (O94804 18-317, looked up): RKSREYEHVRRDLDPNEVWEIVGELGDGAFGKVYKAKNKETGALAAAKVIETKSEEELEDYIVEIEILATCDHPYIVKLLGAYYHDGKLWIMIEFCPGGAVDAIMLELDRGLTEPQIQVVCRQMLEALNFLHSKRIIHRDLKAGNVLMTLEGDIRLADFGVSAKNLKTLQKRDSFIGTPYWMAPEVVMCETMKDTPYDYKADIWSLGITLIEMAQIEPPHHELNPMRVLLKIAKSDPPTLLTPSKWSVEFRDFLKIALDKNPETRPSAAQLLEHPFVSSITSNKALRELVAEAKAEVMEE
Sequence of SLK, construct: Full length (Q9H2G2 whole entry, looked up): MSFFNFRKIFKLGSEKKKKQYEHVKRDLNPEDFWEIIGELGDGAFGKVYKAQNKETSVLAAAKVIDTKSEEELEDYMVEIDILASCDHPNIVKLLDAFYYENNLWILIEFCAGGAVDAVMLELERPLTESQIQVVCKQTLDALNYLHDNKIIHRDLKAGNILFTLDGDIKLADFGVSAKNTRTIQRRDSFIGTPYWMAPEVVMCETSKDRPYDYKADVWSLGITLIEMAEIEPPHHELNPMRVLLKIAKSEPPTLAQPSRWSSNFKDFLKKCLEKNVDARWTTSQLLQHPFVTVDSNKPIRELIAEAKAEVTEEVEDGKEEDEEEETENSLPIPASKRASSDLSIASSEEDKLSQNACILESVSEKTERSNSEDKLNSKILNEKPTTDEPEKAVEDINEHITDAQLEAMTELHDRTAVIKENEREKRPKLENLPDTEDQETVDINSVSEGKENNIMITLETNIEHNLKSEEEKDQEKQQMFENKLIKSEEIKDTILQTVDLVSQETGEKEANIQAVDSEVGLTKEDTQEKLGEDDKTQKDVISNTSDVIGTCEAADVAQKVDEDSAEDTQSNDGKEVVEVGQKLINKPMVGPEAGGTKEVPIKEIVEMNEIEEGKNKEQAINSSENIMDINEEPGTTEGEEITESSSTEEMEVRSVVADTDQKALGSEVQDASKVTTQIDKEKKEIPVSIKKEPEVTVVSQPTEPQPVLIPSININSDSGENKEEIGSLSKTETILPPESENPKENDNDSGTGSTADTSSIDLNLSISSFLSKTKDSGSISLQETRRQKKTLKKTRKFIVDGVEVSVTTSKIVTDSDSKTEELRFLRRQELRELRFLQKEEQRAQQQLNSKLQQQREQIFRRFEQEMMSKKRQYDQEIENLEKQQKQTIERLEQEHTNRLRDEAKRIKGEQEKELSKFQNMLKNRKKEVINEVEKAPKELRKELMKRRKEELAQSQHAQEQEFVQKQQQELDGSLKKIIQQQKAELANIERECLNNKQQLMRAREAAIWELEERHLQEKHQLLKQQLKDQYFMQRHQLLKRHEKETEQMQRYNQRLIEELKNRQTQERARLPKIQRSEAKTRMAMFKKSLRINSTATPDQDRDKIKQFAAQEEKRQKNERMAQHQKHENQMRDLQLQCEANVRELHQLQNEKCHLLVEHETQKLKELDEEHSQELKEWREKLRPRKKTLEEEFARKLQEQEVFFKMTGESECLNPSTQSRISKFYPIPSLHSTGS

SLK, construct: Full length (from UniProt Q9H2G2)
relative phosphorylation
Conditions | at +1 | at +2 | at +3 | at +4 | at -1 | at -2 | at -3 | at -4 | at -5
A fixed | 0.368 | 0.647 | 0.652 | 0.778 | 0.576 | 0.458 | 0.681 | 1.05 | 1.07
D fixed | 0.242 | 0.669 | 0.58 | 1.14 | 0.484 | 0.531 | 0.8 | 1.09 | 1.57
E fixed | 0.198 | 0.358 | 0.515 | 0.774 | 0.33 | 0.306 | 0.686 | 1.08 | 1
F fixed | 1.23 | 0.482 | 0.699 | 0.768 | 0.781 | 2.5 | 0.948 | 0.894 | 0.915
G fixed | 0.428 | 0.917 | 1.01 | 1.04 | 0.478 | 0.424 | 0.641 | 1.2 | 1.06
H fixed | 0.835 | 1.38 | 1.13 | 1.15 | 1.16 | 0.848 | 1.14 | 1.04 | 1.2
I fixed | 1.39 | 0.349 | 0.454 | 0.648 | 0.287 | 0.263 | 0.314 | 0.6 | 0.552
K fixed | 1.24 | 2.1 | 2.23 | 1.47 | 3.28 | 1.41 | 2.4 | 1.06 | 1.48
L fixed | 2.29 | 0.478 | 0.632 | 0.8 | 0.881 | 0.357 | 0.386 | 0.706 | 0.617
M fixed | 2.25 | 0.614 | 0.61 | 0.801 | 0.904 | 0.568 | 0.565 | 0.747 | 0.691
N fixed | 0.877 | 1.22 | 1.27 | 1.04 | 1.59 | 0.737 | 1.11 | 0.85 | 1.21
P fixed | 0.399 | 1.22 | 1.89 | 1.47 | 0.756 | 0.613 | 1 | 1.68 | 0.872
Q fixed | 0.818 | 1.04 | 0.918 | 1.22 | 1.27 | 0.604 | 1.01 | 0.918 | 0.744
R fixed | 1.11 | 3.74 | 2.14 | 1.45 | 1.68 | 1.13 | 1.79 | 1.11 | 1.31
V fixed | 0.673 | 0.445 | 0.514 | 0.598 | 0.35 | 0.306 | 0.326 | 0.688 | 0.716
W fixed | 1.49 | 0.745 | 0.911 | 1.04 | 0.781 | 0.862 | 1.95 | 1.36 | 1.12
Y fixed | 1.16 | 0.599 | 0.844 | 0.81 | 1.41 | 5.07 | 1.26 | 0.95 | 0.872
pThr fixed | 0.61 | 1 | 0.916 | 0.839 | 0.431 | 0.525 | 0.878 | 1.28 | 1.27
pTyr fixed | 0.455 | 0.581 | 0.811 | 0.641 | 0.392 | 0.921 | 1.16 | 1.07 | 1.03

STK10, construct: aa18-317 (from UniProt O94804)
relative phosphorylation
Conditions | at +1 | at +2 | at +3 | at +4 | at -1 | at -2 | at -3 | at -4 | at -5
A fixed | 0.6 | 0.853 | 0.817 | 0.9 | 0.811 | 0.667 | 0.873 | 0.975 | 1.15
D fixed | 0.168 | 0.371 | 0.456 | 0.637 | 0.412 | 0.51 | 0.598 | 0.695 | 0.905
E fixed | 0.167 | 0.225 | 0.409 | 0.563 | 0.304 | 0.216 | 0.598 | 0.776 | 0.605
F fixed | 1.23 | 0.634 | 0.846 | 0.816 | 0.911 | 2.13 | 1.02 | 0.85 | 0.846
G fixed | 0.564 | 1.09 | 1.09 | 1.21 | 0.703 | 0.543 | 0.936 | 1.35 | 1.28
H fixed | 1.06 | 1.48 | 1.26 | 1.04 | 1.41 | 1.07 | 1.25 | 1.16 | 1.15
I fixed | 1.47 | 0.48 | 0.568 | 0.666 | 0.539 | 0.384 | 0.505 | 0.718 | 0.672
K fixed | 1.04 | 2.28 | 1.92 | 1.7 | 1.99 | 1.86 | 2.07 | 1.62 | 1.81
L fixed | 2.1 | 0.629 | 0.809 | 0.876 | 1.18 | 0.559 | 0.612 | 0.767 | 0.654
M fixed | 1.83 | 0.729 | 0.72 | 0.827 | 1.12 | 0.918 | 0.759 | 0.858 | 0.768
N fixed | 0.757 | 1.12 | 0.961 | 1.17 | 1.13 | 0.879 | 1.07 | 0.837 | 1.15
P fixed | 0.321 | 1.05 | 1.62 | 1.48 | 0.584 | 0.492 | 0.85 | 1.14 | 1.09
Q fixed | 0.763 | 0.952 | 0.954 | 1.17 | 1.03 | 0.777 | 1.02 | 0.956 | 0.82
R fixed | 1.18 | 3.13 | 2.06 | 1.63 | 1.96 | 1.72 | 2.01 | 1.58 | 1.73
V fixed | 0.956 | 0.56 | 0.613 | 0.724 | 0.6 | 0.485 | 0.475 | 0.795 | 0.814
W fixed | 1.49 | 0.732 | 0.987 | 0.896 | 0.93 | 0.881 | 1.24 | 1.05 | 0.769
Y fixed | 1.3 | 0.688 | 0.91 | 0.699 | 1.38 | 2.91 | 1.11 | 0.877 | 0.788
pThr fixed | 0.44 | 0.484 | 0.586 | 0.537 | 0.274 | 0.358 | 0.612 | 0.857 | 0.871
pTyr fixed | 0.362 | 0.314 | 0.667 | 0.476 | 0.382 | 0.491 | 0.938 | 0.816 | 0.855
